From article PMC10588558, “On the regulation of human D‐aspartate oxidase” (Protein Science : A Publication of the Protein Society, 2023)
Where a chain is given by its changes, count along the chain named. Numbers in names are those of the source.

B1: pLG72 R30 variant (wild type), recombinant (natural protein, UniProt P59103 1-153, looked up)
chain: MLEKLMGADSLQLFRSRYTLGKIYFIGFQRSILLSKSENSLNSIAKETEEGRETVTRKEGWKRRHEDGYLEMAQRHLQRSLCPWVSYLPQPYAELEEVSSHVGKVFMARNYEFLAYEASKDRRQPLERMWTCNYNQQKDQSCNHKEITSTKAE
notes: primate-specific protein pLG72 (18 kDa), wild type with Arg at position 30; kept in 0.06% N-lauroyl sarcosine; also called R30 pLG72; wild-type (R30) pLG72; source: E. coli BL21-Codon plus (DE3)-RIL, recovered from insoluble inclusion bodies, purified
B2: pLG72 R30K variant (Arg30Lys), recombinant (natural protein, UniProt P59103 1-153, looked up)
chain: B1 chain with R30K
notes: primate-specific protein pLG72 (18 kDa), Arg30Lys variant related to schizophrenia susceptibility; kept in 0.06% N-lauroyl sarcosine; also called R30K pLG72; source: E. coli BL21-Codon plus (DE3)-RIL, recovered from insoluble inclusion bodies, purified

Assays:
[1] = molecular target: T1, hDASPO (hDASPO_341), human D-aspartate oxidase (Homo sapiens, UniProt Q99489); test: quenching of apoprotein tryptophan fluorescence (~[…] nm), titration; assay type: binding
T1 construct: gene DDO; full-length canonical isoform, 341 residues; His-tagged (pET11-His-hDASPO), E. coli BL21(DE3) LOBSTR, HiTrap chelating
T1 sequence (Q99489 1-341): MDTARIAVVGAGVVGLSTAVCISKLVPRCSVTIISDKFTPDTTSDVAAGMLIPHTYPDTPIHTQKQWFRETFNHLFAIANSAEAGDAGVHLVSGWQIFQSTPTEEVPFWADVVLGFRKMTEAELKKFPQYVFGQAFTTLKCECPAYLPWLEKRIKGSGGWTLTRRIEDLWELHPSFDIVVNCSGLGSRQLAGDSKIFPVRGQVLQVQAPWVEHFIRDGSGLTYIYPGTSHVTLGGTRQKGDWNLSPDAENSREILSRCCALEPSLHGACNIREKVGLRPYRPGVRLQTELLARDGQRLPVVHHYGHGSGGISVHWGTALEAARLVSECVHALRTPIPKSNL

[2] = molecular target: T2, hDASPO-RED (recombinant hDASPO labelled with the RED-NHS dye) (human, UniProt Q99489 1-341, RED-NHS fluorescent dye on primary amines (lysine residues), degree of labeling ~0.7); test: MST; Monolith NT.115; 10 nM hDASPO-RED with 3 nM to 100 μM label-free pLG72 variant; conditions: both partners purified
T2 construct: human D-aspartate oxidase, canonical isoform 1 (hDASPO_341, 341 amino acids), UniProt Q99489; encoded by the pET11-His-hDASPO plasmid; Same protein as m1, with the dye; also called labeled hDASPO; source: E. coli BL21(DE3) LOBSTR, purified (HiTrap chelating column), labelled with the RED-NHS labeling kit second generation
T2 sequence (looked up): T1 sequence (Q99489 1-341)

Molecule | Kd [1] | Kd [2]
Cc1cc2nc3c(=O)[nH]c(=O)nc-3n(C[C@H](O)[C@H](O)[C@H](O)COP(=O)(O)OP(=O)(O)OC[C@H]3O[C@@H](n4cnc5c(N)ncnc54)[C@H](O)[C@@H]3O)c2cc1C [FAD] | 0.016 µM | –
B1 | – | 6.8 ± 0.6 µM
B2 | – | 3.8 ± 0.4 µM
